Values belong to the binder of their own block, whether it stands above or below them.
Experiments:
[1] = biological target: T1, human CIB2 1-187 (calcium- and integrin-binding protein 2), wild type (human, UniProt O75838 1-187); assay: ITC
T1 sequence: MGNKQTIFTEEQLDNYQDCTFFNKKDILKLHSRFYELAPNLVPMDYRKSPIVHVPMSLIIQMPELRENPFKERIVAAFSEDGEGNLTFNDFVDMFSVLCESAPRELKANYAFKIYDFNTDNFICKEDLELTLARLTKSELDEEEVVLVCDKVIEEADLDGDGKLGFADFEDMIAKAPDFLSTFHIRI

human CIB2 1-187 E11R = biological target: T2, human CIB2 1-187 E11R (human, UniProt O75838 1-187, E11R); assay: ITC + SEC
T2 sequence: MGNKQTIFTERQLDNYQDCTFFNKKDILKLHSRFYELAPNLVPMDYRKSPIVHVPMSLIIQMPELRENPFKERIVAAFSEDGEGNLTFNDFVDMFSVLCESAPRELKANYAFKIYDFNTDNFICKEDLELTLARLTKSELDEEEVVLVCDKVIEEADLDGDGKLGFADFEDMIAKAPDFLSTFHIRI

human CIB2 1-187 F21Q = biological target: T3, human CIB2 1-187 F21Q (human, UniProt O75838 1-187, F21Q); assay: ITC + SEC
T3 sequence: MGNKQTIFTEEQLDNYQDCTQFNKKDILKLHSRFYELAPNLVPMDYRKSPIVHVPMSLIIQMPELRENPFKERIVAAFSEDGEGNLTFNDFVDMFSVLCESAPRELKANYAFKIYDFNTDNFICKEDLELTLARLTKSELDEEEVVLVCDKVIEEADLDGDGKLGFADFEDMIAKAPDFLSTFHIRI

[2] = biological target: T1, human CIB2 1-187 (calcium- and …); assay: SEC-MALS
[3] = biological target: T4, human CIB2 Y115C (deafness-related variant) (human, UniProt O75838 1-187, Y115C); assay: ITC
T4 sequence: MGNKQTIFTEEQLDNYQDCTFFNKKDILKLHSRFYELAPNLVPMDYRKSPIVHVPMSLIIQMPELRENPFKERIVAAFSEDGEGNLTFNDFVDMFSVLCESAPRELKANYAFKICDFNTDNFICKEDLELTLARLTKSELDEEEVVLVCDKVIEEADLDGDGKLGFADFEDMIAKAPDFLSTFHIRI

[4] = biological target: T5, human CIB2 1-187 Q17A/T20A (human, UniProt O75838 1-187, Q17A | T20A); assay: ITC
T5 sequence: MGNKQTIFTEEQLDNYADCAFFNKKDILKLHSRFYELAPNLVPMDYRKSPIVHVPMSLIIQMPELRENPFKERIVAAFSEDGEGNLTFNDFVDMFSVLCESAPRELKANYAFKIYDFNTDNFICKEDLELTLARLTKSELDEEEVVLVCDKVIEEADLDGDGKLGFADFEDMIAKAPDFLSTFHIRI

[5] = biological target: T6, human CIB2 R186W (deafness-related variant) (human, UniProt O75838 1-187, R186W); assay: ITC
T6 sequence: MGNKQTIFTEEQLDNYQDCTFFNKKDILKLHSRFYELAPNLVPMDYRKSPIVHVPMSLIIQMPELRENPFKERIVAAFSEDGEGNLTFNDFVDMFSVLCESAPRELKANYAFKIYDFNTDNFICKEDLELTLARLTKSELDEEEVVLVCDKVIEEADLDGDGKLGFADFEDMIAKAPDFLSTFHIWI

mouse CIB3 = biological target: T7, mouse CIB3 (mouse, UniProt A0A5F8MPX9 1-187); assay: ITC
T7 sequence: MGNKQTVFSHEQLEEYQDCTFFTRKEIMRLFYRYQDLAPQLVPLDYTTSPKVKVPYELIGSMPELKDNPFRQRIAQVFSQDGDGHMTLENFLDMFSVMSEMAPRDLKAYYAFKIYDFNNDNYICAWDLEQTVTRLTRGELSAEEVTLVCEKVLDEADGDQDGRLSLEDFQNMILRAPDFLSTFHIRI

[6] = biological target: T8, human CIB2 R66W (deafness-related variant) (human, UniProt O75838 1-187, R66W); assay: ITC
T8 sequence: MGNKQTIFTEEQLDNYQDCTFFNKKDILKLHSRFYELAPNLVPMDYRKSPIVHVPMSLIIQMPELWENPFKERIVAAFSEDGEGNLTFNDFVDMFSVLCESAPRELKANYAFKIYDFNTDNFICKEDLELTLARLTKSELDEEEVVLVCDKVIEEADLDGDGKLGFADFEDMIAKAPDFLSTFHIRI

[7] = biological target: T9, human CIB2 I123T (deafness-related variant) (human, UniProt O75838 1-187, I123T); assay: ITC
T9 sequence: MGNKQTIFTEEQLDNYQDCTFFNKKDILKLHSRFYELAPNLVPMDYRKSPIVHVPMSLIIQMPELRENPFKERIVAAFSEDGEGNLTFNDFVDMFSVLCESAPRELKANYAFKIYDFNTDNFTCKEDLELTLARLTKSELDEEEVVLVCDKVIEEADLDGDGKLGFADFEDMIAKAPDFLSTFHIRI

[8] = biological target: T10, human CIB2 E64D (deafness-related variant) (human, UniProt O75838 1-187, E64D); assay: ITC
T10 sequence: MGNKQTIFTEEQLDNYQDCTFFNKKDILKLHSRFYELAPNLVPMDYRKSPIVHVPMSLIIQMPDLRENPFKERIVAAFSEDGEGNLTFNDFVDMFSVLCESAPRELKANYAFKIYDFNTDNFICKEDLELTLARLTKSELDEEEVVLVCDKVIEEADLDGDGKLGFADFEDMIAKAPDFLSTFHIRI

[9] = biological target: T11, human CIB2 1-187 D127A/D168A (EF-hand double mutant) (human, UniProt O75838 1-187, D127A | D168A); assay: ITC
T11 sequence: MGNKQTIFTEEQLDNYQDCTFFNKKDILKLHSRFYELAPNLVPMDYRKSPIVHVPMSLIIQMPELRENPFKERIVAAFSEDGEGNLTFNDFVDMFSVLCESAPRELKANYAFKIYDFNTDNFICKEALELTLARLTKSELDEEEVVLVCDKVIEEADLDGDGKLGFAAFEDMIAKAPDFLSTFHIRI

[10] = biological target: T1, human CIB2 1-187 (calcium- and …); assay: ITC + SEC
[11] = biological target: T4, human CIB2 Y115C (deafness-related …); assay: pull-down
[12] = biological target: T6, human CIB2 R186W (deafness-related …); assay: pull-down
[13] = biological target: T8, human CIB2 R66W (deafness-related …); assay: pull-down
[14] = biological target: T9, human CIB2 I123T (deafness-related …); assay: pull-down
[15] = biological target: T10, human CIB2 E64D (deafness-related …); assay: pull-down
[16] = biological target: T12, human CIB2 F91S (deafness-related variant) (human, UniProt O75838 1-187, F91S); assay: pull-down
T12 sequence: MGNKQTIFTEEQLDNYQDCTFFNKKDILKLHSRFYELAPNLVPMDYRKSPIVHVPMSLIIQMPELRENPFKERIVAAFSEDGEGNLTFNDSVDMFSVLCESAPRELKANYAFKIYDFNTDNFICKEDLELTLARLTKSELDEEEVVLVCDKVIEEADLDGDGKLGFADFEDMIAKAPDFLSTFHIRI

[17] = biological target: T12, human CIB2 F91S (deafness-related …); assay: ITC

binding result [1]: binds
B1: human TMC2 CBD-2 (aa 363-424) (domain or fragment)
chain: NTQGSTGEGESDNFTFSFKMFTSWDYLIGNSETADNKYASITTSFKESIVDEQESNKEENIH

Kd [1]: ~4600 nM
Binder: ELDEKRQIIATVKCKPWKMEKKIEVLKEAKKFVSENEGALGK (domain or fragment) [human TMC1 fragment 95-136]

binding result (human CIB2 1-187 E11R): binds
binding result (human CIB2 1-187 F21Q): binds
stoichiometry N [2]: 1
binding result [3]: binds
Kd [1]: ~300 nM
fold decrease in binding affinity against wild-type CIB2 [4]: > 15 fold
binding result [5]: binds
binding result (mouse CIB3): binds
binding result [6]: binds
binding result [7]: binds
binding result [8]: binds
binding result [9]: binds
B2: human TMC1 CBD-1 (CIB binding domain-1), residues 86-136 (domain or fragment)
chain: EEELERLKAELDEKRQIIATVKCKPWKMEKKIEVLKEAKKFVSENEGALGK

binding result [10]: binds
B3: human TMC1 CBD-1 (86-136) K121E (domain or fragment)
chain: EEELERLKAELDEKRQIIATVKCKPWKMEKKIEVLEEAKKFVSENEGALGK

binding result [11]: binds
binding result [12]: binds
binding result [13]: binds
binding result [14]: binds
binding result [15]: binds
B4: GST-tagged human TMC1 CBD-1 (86-136) (domain or fragment)
chain: EEELERLKAELDEKRQIIATVKCKPWKMEKKIEVLKEAKKFVSENEGALGK

binding result [10]: binds
B5: human TMC1 CBD-1 (86-136) K107A (domain or fragment)
chain: EEELERLKAELDEKRQIIATVACKPWKMEKKIEVLKEAKKFVSENEGALGK

binding result [12]: binds
binding result [13]: binds
binding result [16]: binds
B6: GST-tagged human TMC1 CBD-2 (298-359) (domain or fragment)
chain: KNIGDDGGGDDNTFNFSWKVFTSWDYLIGNPETADNKFNSITMNFKEAITEEKAAQVEENVH

binding result [5]: binds
binding result [6]: binds
binding result [17]: binds
B7: human TMC1 CBD-2, amino acids 298-359 (first cytoplasmic loop between TM domains 2 and 3) (domain or fragment)
chain: KNIGDDGGGDDNTFNFSWKVFTSWDYLIGNPETADNKFNSITMNFKEAITEEKAAQVEENVH

Kd [1]: ~600 nM
B8: human TMC2 CBD-1 (aa 150-200) (domain or fragment)
chain: EEELAQILEQVEEKKKLIATMRSKPWPMAKKLTELREAQEFVEKYEGALGK

Source: publication PMC11861898 (Communications Biology, 2025)
